# From patent publication US20190169289A1 (Scripps Research, published 2019)
# Molecular target: T1, anti-GCN4 (52SR4 scFv) sCAR with CD8 hinge
# T1 construct: 273 is the protein without leader; also called sCAR (long); CD8 sCAR
# Assay: flow cytometry on CD8 sCAR-T cells, switch 30 min at 4 C, detected with PE-conjugated goat anti-human kappa chain antibody, MFI
# From the text: Cells were washed two times and analyzed using the Accuri flow cytometer (BD).
row,Binder,EC50 [nM]
1,"anti-CD19 (FMC63) Fab HCCT switch (Fab, V domains shown, also called C-terminal switch) VH: EVKLQESGPGLVAPSQSLSVTCTVSGVSLPDYGVSWIRQPPRKGLEWLGVIWGSETTYYNSALKSRLTIIKDNSKSQVFLKMNSLQTDDTAIYYCAKHYYYGGSYAMDYWGQGTSVTVSS VL: DIQMTQTTSSLSASLGDRVTISCRASQDISKYLNWYQQKPDGTVKLLIYHTSRLHSGVPSRFSGSGSGTDYSLTISNLEQEDIATYFCQQGNTLPYTFGGGTKLEIKR",11.7
2,"anti-CD19 (FMC63) Fab NTBV switch (Fab, V domains shown, also called BV NT) VH: EVKLQESGPGLVAPSQSLSVTCTVSGVSLPDYGVSWIRQPPRKGLEWLGVIWGSETTYYNSALKSRLTIIKDNSKSQVFLKMNSLQTDDTAIYYCAKHYYYGGSYAMDYWGQGTSVTVSS VL: DIQMTQTTSSLSASLGDRVTISCRASQDISKYLNWYQQKPDGTVKLLIYHTSRLHSGVPSRFSGSGSGTDYSLTISNLEQEDIATYFCQQGNTLPYTFGGGTKLEIKR",0.69
3,"anti-CD19 (FMC63) Fab LCC1 switch (Fab, also called anti-CD19 Fab CL1-GCN4) light: DIQMTQTTSSLSASLGDRVTISCRASQDISKYLNWYQQKPDGTVKLLIYHTSRLHSGVPSRFSGSGSGTDYSLTISNLEQEDIATYFCQQGNTLPYTFGGGTKLEIKRTVAAPSVFIFPPSDEQLKSGTASVVCLLNNFYPREAKVQWKVDNALQSGNSQESVTEQDSGGGGSNYHLENEVARLKKLGGGGSDSTYSLSSTLTLSKADYEKHKVYACEVTHQGLSSPVTKSFNRGEC heavy: EVKLQESGPGLVAPSQSLSVTCTVSGVSLPDYGVSWIRQPPRKGLEWLGVIWGSETTYYNSALKSRLTIIKDNSKSQVFLKMNSLQTDDTAIYYCAKHYYYGGSYAMDYWGQGTSVTVSSASTKGPSVFPLAPSSKSTSGGTAALGCLVKDYFPEPVTVSWNSGALTSGVHTFPAVLQSSGLYSLSSVVTVPSSSLGTQTYICNVNHKPSNTKVDKKVEPKSC",4.6
4,"anti-CD19 (FMC63) Fab C1BV switch (Fab, also called BV C1) light: DIQMTQTTSSLSASLGDRVTISCRASQDISKYLNWYQQKPDGTVKLLIYHTSRLHSGVPSRFSGSGSGTDYSLTISNLEQEDIATYFCQQGNTLPYTFGGGTKLEIKRTVAAPSVFIFPPSDEQLKSGTASVVCLLNNFYPREAKVQWKVDNALQSGNSQESVTEQDSGGGGSNYHLENEVARLKKLGGGGSDSTYSLSSTLTLSKADYEKHKVYACEVTHQGLSSPVTKSFNRGEC heavy: EVKLQESGPGLVAPSQSLSVTCTVSGVSLPDYGVSWIRQPPRKGLEWLGVIWGSETTYYNSALKSRLTIIKDNSKSQVFLKMNSLQTDDTAIYYCAKHYYYGGSYAMDYWGQGTSVTVSSASTKGPSVFPLAPSSNYHLENEVARLKKLSGGTAALGCLVKDYFPEPVTVSWNSGALTSGVHTFPAVLQSSGLYSLSSVVTVPSSSLGTQTYICNVNHKPSNTKVDKKVEPKSC",0.62
5,anti-CD19 (FMC63) Fab LCCT switch (Fab) light: DIQMTQTTSSLSASLGDRVTISCRASQDISKYLNWYQQKPDGTVKLLIYHTSRLHSGVPSRFSGSGSGTDYSLTISNLEQEDIATYFCQQGNTLPYTFGGGTKLEIKRTVAAPSVFIFPPSDEQLKSGTASVVCLLNNFYPREAKVQWKVDNALQSGNSQESVTEQDSKDSTYSLSSTLTLSKADYEKHKVYACEVTHQGLSSPVTKSFNRGECGGGGSNYHLENEVARLKKL heavy: EVKLQESGPGLVAPSQSLSVTCTVSGVSLPDYGVSWIRQPPRKGLEWLGVIWGSETTYYNSALKSRLTIIKDNSKSQVFLKMNSLQTDDTAIYYCAKHYYYGGSYAMDYWGQGTSVTVSSASTKGPSVFPLAPSSKSTSGGTAALGCLVKDYFPEPVTVSWNSGALTSGVHTFPAVLQSSGLYSLSSVVTVPSSSLGTQTYICNVNHKPSNTKVDKKVEPKSC,4.6
